Results: article doi:10.1101/2025.09.30.679481

Target: Bicaudal-D (D. melanogaster (endogenous in embryos)) (UniProt P16568)
Assay: co-IP

UniProt P16568, sequence (P16568 whole entry): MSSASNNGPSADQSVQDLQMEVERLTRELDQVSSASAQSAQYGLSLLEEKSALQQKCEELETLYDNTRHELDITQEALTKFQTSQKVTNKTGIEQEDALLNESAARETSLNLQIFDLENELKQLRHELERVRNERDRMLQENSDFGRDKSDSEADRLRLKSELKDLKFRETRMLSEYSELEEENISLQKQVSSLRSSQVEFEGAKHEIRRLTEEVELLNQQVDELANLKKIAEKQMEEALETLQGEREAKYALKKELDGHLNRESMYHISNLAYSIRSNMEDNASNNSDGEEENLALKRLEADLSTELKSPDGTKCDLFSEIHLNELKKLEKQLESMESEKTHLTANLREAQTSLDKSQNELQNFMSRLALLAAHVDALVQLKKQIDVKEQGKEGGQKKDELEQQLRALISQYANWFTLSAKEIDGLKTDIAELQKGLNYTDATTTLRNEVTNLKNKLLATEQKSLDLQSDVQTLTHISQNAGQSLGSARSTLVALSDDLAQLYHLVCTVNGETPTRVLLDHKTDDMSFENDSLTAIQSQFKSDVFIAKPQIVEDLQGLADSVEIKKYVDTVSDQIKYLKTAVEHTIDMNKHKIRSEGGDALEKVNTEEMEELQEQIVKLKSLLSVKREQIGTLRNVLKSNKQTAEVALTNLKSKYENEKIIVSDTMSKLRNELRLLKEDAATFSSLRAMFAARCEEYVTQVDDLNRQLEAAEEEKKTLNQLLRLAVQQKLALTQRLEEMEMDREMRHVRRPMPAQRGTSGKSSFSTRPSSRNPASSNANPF

## Imp (natural protein)
  reduction of the co-precipitate by RNase: 84%
